From paper PMC10284700

Biological target: wild-type full-length human FGFR1c, P11362
Assay: proximity ligation assay (PLA) on L6 cells
Conditions: chain shown with the change; L6-FGFR1cWT cells cotreated with FGF23ΔHBS and soluble αKlotho; n = 6 microscope fields, mean ± SD; parent: est. 2.3; read off a plot

Sequence of wild-type full-length human FGFR1c, P11362 (P11362 22-822): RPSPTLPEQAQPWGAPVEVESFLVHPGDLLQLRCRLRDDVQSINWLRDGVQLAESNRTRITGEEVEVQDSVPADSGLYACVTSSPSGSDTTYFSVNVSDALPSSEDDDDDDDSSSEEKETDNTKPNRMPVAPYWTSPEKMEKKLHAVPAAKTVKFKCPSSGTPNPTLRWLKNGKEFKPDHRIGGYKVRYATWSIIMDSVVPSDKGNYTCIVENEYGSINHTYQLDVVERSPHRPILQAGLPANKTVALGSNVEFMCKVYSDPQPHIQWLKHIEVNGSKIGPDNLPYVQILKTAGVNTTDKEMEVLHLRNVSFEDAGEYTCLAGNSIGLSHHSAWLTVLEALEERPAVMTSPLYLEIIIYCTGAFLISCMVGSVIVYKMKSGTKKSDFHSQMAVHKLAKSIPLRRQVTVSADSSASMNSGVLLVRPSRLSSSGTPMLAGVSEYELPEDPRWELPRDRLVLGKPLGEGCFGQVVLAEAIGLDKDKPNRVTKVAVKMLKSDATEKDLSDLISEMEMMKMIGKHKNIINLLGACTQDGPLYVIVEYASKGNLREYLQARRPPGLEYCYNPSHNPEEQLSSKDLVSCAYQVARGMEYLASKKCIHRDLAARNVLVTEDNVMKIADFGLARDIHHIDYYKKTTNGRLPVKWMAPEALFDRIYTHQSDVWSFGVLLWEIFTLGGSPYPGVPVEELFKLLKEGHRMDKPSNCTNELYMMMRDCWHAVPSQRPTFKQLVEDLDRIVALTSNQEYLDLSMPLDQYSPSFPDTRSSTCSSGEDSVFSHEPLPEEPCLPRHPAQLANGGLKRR

B1: full-length mature human FGF23 (residues Tyr25 to Ile251), Q9GZV9 R48A; R140A (protein)
chain: MLGARLRLWVCALCSVCSMSVLRAYPNASPLLGSSWGGLIHLYTATAANSYHLQIHKNGHVDGAPHQTIYSALMIRSEDAGFVVITGVMSRRYLCMDFRGNIFGSHYFDPENCRFQHQTLENGYDVYHSPQYHFLVSLGAAKRAFLPGMNPPPYSQFLSRRNEIPLIHFNTPIPRRHTRSAEDDSERDPLNVLKPRARMTPAPASCSQELPSAEDNSPMASDPLGVVRGGRVNTHAGGTGPEGCRPFAKFI
response (positive point/cell number): 1.2
